# Experimental data from US20110150759A1.
# Experiments:
# wtEGFR-FLAG (human) = wtEGFR-FLAG (human) (UniProt P00533); test: flow cytometry on Ba/F3 cells, median fluorescence; reference M2 anti-FLAG antibody
# C271A/C283A-EGFR (human) = C271A/C283A-EGFR (human) (UniProt P00533); test: flow cytometry on Ba/F3 cells, median fluorescence, average of four independent clones; reference M2 anti-FLAG antibody
# [1] = molecular target: EGFR 1-621 full length extracellular domain (human) (UniProt P00533); test: SPR (BIAcore), EGFR fragment 1-621 (can form tether)
# [2] = molecular target: soluble EGFR fragment 1-501 (human) (UniProt P00533); test: SPR (BIAcore), EGFR fragment 1-501 (unable to form tether)
# monoclonal antibody 806, sequence (VH): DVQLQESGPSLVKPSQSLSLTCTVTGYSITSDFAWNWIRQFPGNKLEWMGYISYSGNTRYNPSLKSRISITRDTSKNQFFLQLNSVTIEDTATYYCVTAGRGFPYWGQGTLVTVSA
# monoclonal antibody 806, sequence (VL): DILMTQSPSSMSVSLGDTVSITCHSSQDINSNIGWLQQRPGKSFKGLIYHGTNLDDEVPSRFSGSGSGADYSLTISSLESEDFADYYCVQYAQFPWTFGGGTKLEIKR
ratio of antibody binding mAb 528/M2 (wtEGFR-FLAG (human)),ratio of antibody binding mAb 528/M2 (C271A/C283A-EGFR (human)),Kd [1],Kd [2],Substance
1.37,1.08,,,mAb 528 (antibody)
,,389 nM,34 nM,monoclonal antibody 806
